Measured values reported in US20260207767A1 (ANAVEON, published 2026).

T1: CD122/CD132 complex (His-tagged, Acro Biosystem ILG-H5283) (UniProt P14784 27-239; P31785 23-254, limits assumed)
T1 construct: bought; also called dimeric IL-2 receptor
T1 sequence (looked up) 1: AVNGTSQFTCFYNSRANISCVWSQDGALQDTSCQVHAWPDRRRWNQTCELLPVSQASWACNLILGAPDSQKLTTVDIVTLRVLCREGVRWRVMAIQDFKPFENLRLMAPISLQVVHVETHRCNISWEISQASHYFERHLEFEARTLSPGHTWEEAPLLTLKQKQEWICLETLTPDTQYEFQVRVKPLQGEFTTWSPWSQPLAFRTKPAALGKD
T1 sequence (looked up) 2: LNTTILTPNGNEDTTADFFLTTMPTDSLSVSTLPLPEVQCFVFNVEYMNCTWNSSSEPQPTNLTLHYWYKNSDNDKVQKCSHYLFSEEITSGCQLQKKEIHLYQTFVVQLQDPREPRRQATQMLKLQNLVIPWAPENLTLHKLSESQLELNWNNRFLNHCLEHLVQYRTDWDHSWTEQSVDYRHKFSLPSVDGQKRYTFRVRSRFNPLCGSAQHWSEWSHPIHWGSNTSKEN


Columns and labels:
hPD-1 His-tagged = molecular target: T2, hPD-1 His-tagged (human, UniProt Q15116 25-167); assay: BLI (legend: SPR), Ab on sensor
T2 construct: also called recombinant hPD-1 (AcroBio)
T2 sequence (Q15116 25-167 limits assumed): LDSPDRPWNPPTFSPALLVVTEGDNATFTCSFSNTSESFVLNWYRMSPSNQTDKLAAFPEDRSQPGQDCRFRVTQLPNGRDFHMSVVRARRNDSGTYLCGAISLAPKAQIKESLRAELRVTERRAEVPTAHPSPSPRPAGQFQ

[1] = molecular target: T3, cynoPD-1 His (AcroBiosystems PD1-C5223) (cynomolgus monkey, UniProt B0LAJ3 25-170); assay: BLI (legend: SPR), Ab on sensor
T3 construct: also called cPD-1; cynomolgus PD-1 His-tagged
T3 sequence (B0LAJ3 entry or part of it limits assumed): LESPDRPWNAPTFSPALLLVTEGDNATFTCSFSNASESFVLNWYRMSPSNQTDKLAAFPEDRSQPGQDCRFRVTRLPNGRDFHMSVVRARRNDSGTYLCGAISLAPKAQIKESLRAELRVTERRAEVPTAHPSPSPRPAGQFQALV

[2] = molecular target: T4, cynomolgus PD-1 expressed on cells (cynomolgus monkey, UniProt B0LAJ3 25-288); assay: flow cytometry, HEK293 cyPD1
T4 construct: also called CHO-S Cyno-PD-1; 293:cyPD1
T4 sequence (B0LAJ3 entry or part of it limits assumed): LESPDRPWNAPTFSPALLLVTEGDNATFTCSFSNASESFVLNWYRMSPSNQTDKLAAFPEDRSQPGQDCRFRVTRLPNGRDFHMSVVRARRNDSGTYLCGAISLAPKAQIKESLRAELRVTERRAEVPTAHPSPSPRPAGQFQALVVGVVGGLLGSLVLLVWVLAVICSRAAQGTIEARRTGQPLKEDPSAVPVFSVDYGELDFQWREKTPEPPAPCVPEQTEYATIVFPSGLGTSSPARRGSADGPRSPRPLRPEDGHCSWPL

[3] = molecular target: T5, human PD-1 expressed on cells (human, UniProt Q15116 25-288); assay: flow cytometry, HEK293 huPD1
T5 construct: whole, on cells; cell line named under assay; also called CHO-S hPD-1; Raji PD-1
T5 sequence (Q15116 25-288): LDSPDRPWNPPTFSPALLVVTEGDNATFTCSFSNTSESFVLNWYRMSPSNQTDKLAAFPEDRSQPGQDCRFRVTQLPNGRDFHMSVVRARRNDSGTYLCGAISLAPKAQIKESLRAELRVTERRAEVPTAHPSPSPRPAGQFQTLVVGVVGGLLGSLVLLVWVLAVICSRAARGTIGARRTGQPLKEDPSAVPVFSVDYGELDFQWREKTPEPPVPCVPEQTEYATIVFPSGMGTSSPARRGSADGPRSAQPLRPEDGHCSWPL

recombinant human IL-2 [4] = molecular target: T6, recombinant human IL-2 (human, UniProt P60568 21-153); assay: ELISA, coated IL-2
T6 construct: bought (BLI: Acro Biosystems IL2-H4113); also called rhIL-2; hIL-2
T6 sequence (P60568 21-153 limits assumed): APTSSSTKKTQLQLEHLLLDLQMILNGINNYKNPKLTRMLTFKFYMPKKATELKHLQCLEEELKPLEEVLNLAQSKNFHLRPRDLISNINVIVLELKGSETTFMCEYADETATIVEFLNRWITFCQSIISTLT
Protocol: (§1) Binding to IL-2 was first tested by ELISA using a serial dilution of antibodies on coated IL-2. Recombinant human IL-2 was coated on Maxisorp ELISA plates (Invitrogen, 44-2404-21) at 5 μg/ml, 4° C. overnight. […] The antibodies were detected with anti-human IgG-Peroxidase (Sigma, A0170). After addition and blockade of the chemiluminescent substrate, absorption was read (A₄₅₀-A₅₇₀ at plate reader, Spectramax 03). EC₅₀ values were obtained by plotting Absorbance vs. log(Concentration) and sigmoidal 4-PL fitting using GraphPad Prism (Table 1). […] Antibodies were immobilized on amine reactive (2nd Generation) sensors (ForteBio, 18-5092). Association (600s) and dissociation (900s) of a dilution series of recombinant IL-2 (Acro Biosystems, IL2-H4113) were measured on the antibody-coated biosensors on an Octet-System (Octet RED, ForteBio). KD values were obtained by fitting the kinetics data with the ForteBio Data Analysis Software (8.2).

recombinant human IL-2 [5] = molecular target: T6, recombinant human IL-2; assay: BLI, antibody immobilized
Protocol: as §1

[6] = molecular target: T1, CD122/CD132 complex (His-tagged, Acro …); assay: SPR, CD122/CD132 captured on NTA chip
From the text: Binding to the CD122/CD132 complex (His-tagged, Acro Biosystem, Cat #ILG-H5283) of one representative anti-IL-2 antibody/IL-2 fusion (QTY065) was additionally assessed by SPR (BIAcore 3000, v4.1.2; GE Healthcare) and compared to Proleukin. CD122/CD132 was captured on an NTA sensor chip (GE Healthcare). Proleukin or QTY065 Fab were used as analytes.

recombinant human IL-2 [7] = molecular target: T6, recombinant human IL-2; assay: BLI, antibody immobilized; BLI: antibody immobilized on amine reactive sensors, rhIL-2 in solution as a dilution series
Protocol: as §1

[8] = molecular target: T7, recombinant hPD-1 (construct not stated) (human, UniProt Q15116 25-167, limits assumed); assay: BLI, supernatants
T7 construct: also called huPD-1; Human PD1
T7 sequence (Q15116 25-167 limits assumed): as the sequence (Q15116 25-167 limits assumed) above
From the text: In order to remove an N-glycosylation site present in the CDR-L1, mutations were inserted in the CDR-L1 of 21A08. The first asparagine ([…], N) in CDR-L1, was replaced by a serine (Ser, S), Glutamine (Gln, Q), or Alanine (Ala, A).

Binder | Kd (hPD-1 His-tagged) [nM] | koff (hPD-1 His-tagged) [s⁻¹] | kon (hPD-1 His-tagged) [M⁻¹ s⁻¹] | Kd [1] [nM] | koff [1] [s⁻¹] | kon [1] [M⁻¹ s⁻¹] | EC50 [2] [nM] | EC50 [3] [nM] | EC50 (recombinant human IL-2 [4]) [nM] | Kd (recombinant human IL-2 [5]) [nM] | Kd [6] [nM] | Kd (recombinant human IL-2 [7]) [nM] | Kd [8] [nM] | koff [8] [s⁻¹]
20H02 (antibody, V domains shown, used with CH1,2,3 and corresponding CL) VH: EVLLVESGGGLVQPGGSLRLSCAASGFTFSSYSMNWVRQAPGKGLEWVSFISSSSPTLYYADSVKGRFTISRDNAKNSLYLQMNSLRDEDTAVYYCARQGLTPFDYWGQGTLVTVSS VL: EIVMTQSPATLSVFPGERATLSCRASQSVSSYLAWYQQKPGQAPRLLIYGASTRATGIPARVSGSGSGTEFILTISSLQSEDFAVYYCQQYNNWPYTFGQGTKLEIK | 2.43 | 0.000221 | 90900 | 6.39 | 0.000463 | 72500 | 0.231 | 0.503 |  |  |  |  |  | 
40B20 (antibody, V domains shown, used with CH1,2,3 and corresponding CL) VH: EVQLVESGGGLVQPGGSLRLSCAASGFTFSSYSMNWVRQAPGKGLQWVSYITSSSNTMYYADSVKGRFTISRDNAKNSLYLQMNSLRDEDTAVYYCASIVGAPFDYWGQGTLVTVSS VL: EIVMTQSPATLSVSPGERATLSCRASQSVSSSLAWYQQKPGQAPRLLIYGASTRATGIPARFSGSGSGTEFTLTISSLQSEDFAAYYCQQYNNWPFTFGPGTKVDIK | 9.61 | 0.000773 | 80500 | 7.51 | 0.000505 | 67300 | 0.0958 | 0.162 |  |  |  |  |  | 
39F23 (antibody, V domains shown, used with CH1,2,3 and corresponding CL) VH: QVQLVESGGGVGQPGRSLRLSCAASGFTFSNYGMHWVRQAPGKGLEWVAVIWYDGSKKYYADSVKGRFTISRDNSKNTLYLQMNSLRVEDTAVYYCVGNSGHWGQGTLVTVSS VL: DIVMTQTPLSLPVTPGEPASISCRSSQSLLDSDDGNTYLDWYLQKPGQSPQLLIYTLSYRASGVPDRFSGSGSGTDFTLKISRVEAEDVGVYYCMQCIEFPHTFGGGTKVEIK | 1.03 | 0.000253 | 244000 | 1.3 | 0.000294 | 227000 | 0.0289 | 0.0189 |  |  |  |  |  | 
21A08 (antibody, V domains shown, used with CH1,2,3 and CL(lambda); also called clone 21A08) VH: EVQLLESGGGLVQPGGSLRLSCAASGFTFSINAMTWVRQAPGKGLEWVSTISGSGFSTYYADSLKGRFTISRDNSKNTLYLQMNSLRAEDTAVYYCAKEVYGDYWGQGTLVTVSS VL: not shown | 0.00927 | 6.39e-07 | 69000 | 1.24 | 8.25e-05 | 66700 | 0.195 | 0.243 |  |  |  |  | 2.17 | 0.00014

Second part, the binder after the results:

Kd (hPD-1 His-tagged) [nM] | koff (hPD-1 His-tagged) [s⁻¹] | kon (hPD-1 His-tagged) [M⁻¹ s⁻¹] | Kd [1] [nM] | koff [1] [s⁻¹] | kon [1] [M⁻¹ s⁻¹] | EC50 [2] [nM] | EC50 [3] [nM] | EC50 (recombinant human IL-2 [4]) [nM] | Kd (recombinant human IL-2 [5]) [nM] | Kd [6] [nM] | Kd (recombinant human IL-2 [7]) [nM] | Kd [8] [nM] | koff [8] [s⁻¹] | Binder
 |  |  |  |  |  |  |  | 0.37 | 2.1 |  |  |  |  | Antibody A (antibody, human IgG1, kappa, N297A, V domains shown, humanized from antibody NARA1) VH: EVQLVQSGAEVKKPGESLKISCKGSGYAFTNYLIEWVRQMPGKGLEWMGVINPGSGGTNYNEKFKGQVTISADKSISTAYLQWSSLKASDTAMYYCARWRGEGYYAYFDVWGQGTTVTVSS VL: AIRLTQSPSSFSASTGDRVTITCKASQSVDYQGDSYMNWYQQKPGKAPKLLIYAASNLESGVPSRFSGSGSGTDFTLTISSLQSEDFATYYCQQSNEDPYTFGGGTKVEIKR
 |  |  |  |  |  |  |  |  |  | 0.32 |  |  |  | QTY065 Fab (Fab, also called Fab fragment of QTY065; not shown: CH1) heavy: EVQLVQSGAEVKKPGESLKISCKGSGYAFTNYLIEWVRQMPGKGLEWMGVINPGSGGTNYNEKFKGQVTISADKSISTAYLQWSSLKASDTAMYYCARWRGEGYYAYFDVWGQGTTVTVSS light: not shown
0.228 | 3.79e-05 | 166000 | 0.262 | 3.67e-05 | 140000 | 0.0881 | 0.0921 |  |  |  |  |  |  | 56H02 (antibody, V domains shown, used with CH1,2,3 and corresponding CL) VH: QVQLVQSGAEVKKPGASVKVSCKASGYTFTSYFMHWVRQAPGQGLEWMGLINPDGGNTDYAQKFQGRVTMTRDTSTSTVYMELSSLRSEDTAVYYCARDGNYYDSSGYYYPDAFDIWGQGTMVTVSS VL: SSELTQDPAVSVALGQTVRITCQGDSLRRFYASWYQQKPGQAPVIVIYGKDNRPSGTPDRFSGSTSGNTASLTITGAQAEDEADYYCNSRDSSGTHVVFGGGTKLTVL
 |  |  |  |  |  |  |  |  |  |  | 270 |  |  | Antibody B (antibody, human IgG1, kappa, V domains shown) VH: QVQLVESGGGVVQPGRSLRLSCAASGYTFSSYLIEWVRQAPGKGLEWVAVINPGSGGTNYADSVKGRFTISADKSKNTAYLQMNSLRAEDTAVYYCARWRGDGYYAYFDVWGQGTTVTVSS VL: EIVLTQSPATLSVSPGERATLSCRASQSVSYDGDSYMNWYQQKPGQAPRLLIYAASNLASGIPARFSGSGSGTEFTLTISSLQSEDAAVYYCQQSNEDPYTFGGGTKVEIKR
